According to patent US20220031841A1 (ABSCI, published 2022):

Tests used:
Assay in all cases: HuProt protein array, F635 z-score
[1] = target: T1, Chromobox protein homolog 1 (CBX1) (human, UniProt P83916 1-185)
T1 construct: The array carries full-length recombinant human proteins expressed in S. cerevisiae; also called Human Chromobox protein homolog 1
Source text: (§1) Large scale protein arrays are versatile and sensitive platforms for antibody specificity evaluation. They can be used for the evaluation of protein binding or affinity reagents that are widely employed in research and clinical applications. The microarray used in our target identification experiment provides the largest number of unique, full-length, individually purified human proteins on a single microscope slide. This allows thousands of interactions to be profiled in a high-throughput manner. The hill-length recombinant proteins are expressed in the yeast S. cerevisiae, purified, and printed on glass slides in duplicate along with a set of control proteins (GST, BSA, histones, IgG, etc.). Such microarray is not restricted to a particular type of surface coating, although the default is glass coated with ultra-thin nitrocellulose film for the non-covalent, yet irreversible, capture of active proteins to the surface. Fourteen Protein arrays were used for the antibody cross-reactivity assay of the samples. The antibodies were probed at […] on the arrays and incubated at room temperature for 1 hour. After probing, the arrays were washed according to the protocol and probed with Alexa-647-anti-human IgG […] specific secondary antibodies under conditions optimized for signal detection. The antibody-antigen binding score was calculated for each protein represented on the array and expressed as z-scores.
(§2) Antibody samples are probed on native HuProt arrays at 1 μg/ml and incubated at room temperature for 1 hour. After probing, the arrays are washed according to the standard protocols and probed with Alexa-647-anti-human IgG Fc gamma specific secondary antibodies under conditions optimized for signal detection.
(§3) Z score is the average Z score of the duplicate spots of a given protein (each protein is printed in duplicate on a HuProt™ array). The Z score of each spot on a given array is calculated according to the equation: […]

[2] = target: T2, O-linked N-acetylglucosamine (GlcNAc) transferase (OGT) (human, UniProt O15294 2-1046)
T2 construct: The array carries full-length recombinant human proteins expressed in S. cerevisiae; also called Human OGT
T2 sequence: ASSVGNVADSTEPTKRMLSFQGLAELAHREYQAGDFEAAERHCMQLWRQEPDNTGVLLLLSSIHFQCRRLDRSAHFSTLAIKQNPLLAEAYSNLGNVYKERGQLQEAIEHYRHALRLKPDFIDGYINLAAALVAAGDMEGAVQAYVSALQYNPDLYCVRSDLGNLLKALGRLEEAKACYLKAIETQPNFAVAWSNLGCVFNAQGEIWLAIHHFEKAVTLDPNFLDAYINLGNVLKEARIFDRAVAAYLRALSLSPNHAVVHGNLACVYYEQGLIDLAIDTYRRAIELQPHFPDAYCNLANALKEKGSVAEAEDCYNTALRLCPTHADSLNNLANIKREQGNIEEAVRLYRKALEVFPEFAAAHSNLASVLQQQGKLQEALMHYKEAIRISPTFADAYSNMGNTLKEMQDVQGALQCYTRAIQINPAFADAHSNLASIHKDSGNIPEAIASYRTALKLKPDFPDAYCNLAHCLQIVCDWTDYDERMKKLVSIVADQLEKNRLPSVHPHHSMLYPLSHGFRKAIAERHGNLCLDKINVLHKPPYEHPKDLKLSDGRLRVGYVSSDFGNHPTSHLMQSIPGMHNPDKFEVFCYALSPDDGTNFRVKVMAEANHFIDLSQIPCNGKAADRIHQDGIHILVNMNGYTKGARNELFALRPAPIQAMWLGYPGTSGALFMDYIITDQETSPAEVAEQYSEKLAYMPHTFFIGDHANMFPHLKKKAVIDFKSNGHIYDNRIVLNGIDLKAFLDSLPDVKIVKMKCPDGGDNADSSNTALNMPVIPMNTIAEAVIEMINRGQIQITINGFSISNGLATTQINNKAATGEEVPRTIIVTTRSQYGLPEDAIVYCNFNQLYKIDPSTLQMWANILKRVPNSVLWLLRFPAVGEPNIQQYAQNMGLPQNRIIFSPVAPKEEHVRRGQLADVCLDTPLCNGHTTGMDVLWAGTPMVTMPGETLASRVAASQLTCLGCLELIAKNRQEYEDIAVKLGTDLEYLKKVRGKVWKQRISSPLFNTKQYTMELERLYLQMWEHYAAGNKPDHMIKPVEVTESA
Source text: as §1, §2, §3

[3] = target: T3, Alpha-taxilin (TXLNA) also known as interleukin-14A (human, UniProt P40222 1-546)
T3 construct: The array carries full-length recombinant human proteins expressed in S. cerevisiae; also called IL-14A; TXLNA/IL-14A
Source text: as §1, §2, §3

[4] = target: T4, Chromobox protein homolog 5 (CBX5) (human, UniProt P45973 1-191)
T4 construct: The array carries full-length recombinant human proteins expressed in S. cerevisiae; also called Human Chromobox protein homolog 5
Source text: as §1, §2, §3

[5] = target: T5, Src homology 2 (SH2) domain containing inositol polyphosphate 5-phosphatase 1 (SHIP1) (human, UniProt Q92835 1-1189)
T5 construct: The array carries full-length recombinant human proteins expressed in S. cerevisiae, purified and printed on glass slides; also called INPP5D; INPP5D/SHIP1
T5 sequence: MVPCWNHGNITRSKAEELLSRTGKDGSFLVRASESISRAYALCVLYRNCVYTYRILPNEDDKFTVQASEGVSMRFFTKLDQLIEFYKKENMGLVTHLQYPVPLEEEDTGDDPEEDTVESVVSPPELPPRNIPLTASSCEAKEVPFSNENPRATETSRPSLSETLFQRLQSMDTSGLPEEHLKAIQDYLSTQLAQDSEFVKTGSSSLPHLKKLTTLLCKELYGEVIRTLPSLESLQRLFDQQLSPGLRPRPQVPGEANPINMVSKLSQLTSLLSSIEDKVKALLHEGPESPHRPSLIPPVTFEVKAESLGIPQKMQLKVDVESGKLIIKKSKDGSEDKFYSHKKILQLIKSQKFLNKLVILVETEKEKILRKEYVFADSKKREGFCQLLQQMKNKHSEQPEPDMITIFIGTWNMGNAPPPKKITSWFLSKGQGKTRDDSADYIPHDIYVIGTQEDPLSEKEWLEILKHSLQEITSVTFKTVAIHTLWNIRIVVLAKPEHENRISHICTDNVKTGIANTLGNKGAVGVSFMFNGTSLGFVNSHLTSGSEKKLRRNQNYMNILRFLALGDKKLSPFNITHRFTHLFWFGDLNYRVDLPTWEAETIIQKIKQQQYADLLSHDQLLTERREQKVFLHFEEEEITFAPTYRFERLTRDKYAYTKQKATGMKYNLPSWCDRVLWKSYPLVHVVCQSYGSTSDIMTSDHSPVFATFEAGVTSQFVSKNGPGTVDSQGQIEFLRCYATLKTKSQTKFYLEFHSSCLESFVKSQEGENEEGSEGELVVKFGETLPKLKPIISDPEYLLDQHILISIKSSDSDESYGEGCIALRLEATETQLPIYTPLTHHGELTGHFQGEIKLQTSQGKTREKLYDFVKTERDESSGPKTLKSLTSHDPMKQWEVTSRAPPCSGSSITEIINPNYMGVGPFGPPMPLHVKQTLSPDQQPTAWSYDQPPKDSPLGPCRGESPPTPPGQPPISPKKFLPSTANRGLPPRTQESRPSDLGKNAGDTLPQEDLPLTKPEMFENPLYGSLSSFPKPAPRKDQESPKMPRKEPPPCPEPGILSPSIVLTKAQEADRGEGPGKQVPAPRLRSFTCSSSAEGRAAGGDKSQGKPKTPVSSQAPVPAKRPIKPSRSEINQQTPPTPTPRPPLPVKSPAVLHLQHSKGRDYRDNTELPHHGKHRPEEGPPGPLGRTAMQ
Source text: as §1, §2, §3

[6] = target: T6, Inorganic pyrophosphatase (PPA1) (human, UniProt Q15181 2-289)
T6 construct: The array carries full-length recombinant human proteins expressed in S. cerevisiae; also called Human PPA1
T6 sequence: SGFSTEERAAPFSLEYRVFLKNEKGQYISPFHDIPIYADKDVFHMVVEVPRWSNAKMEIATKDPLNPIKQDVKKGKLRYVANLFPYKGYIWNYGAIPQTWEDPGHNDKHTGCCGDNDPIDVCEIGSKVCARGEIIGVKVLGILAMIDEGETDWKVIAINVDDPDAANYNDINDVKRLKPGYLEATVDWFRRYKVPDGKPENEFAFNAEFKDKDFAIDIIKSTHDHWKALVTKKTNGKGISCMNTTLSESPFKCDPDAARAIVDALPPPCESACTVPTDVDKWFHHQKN
Source text: as §1, §2, §3

[7] = target: T7, Cancer/testis antigen 1 (CTAG1A) (human, UniProt P78358 1-180)
T7 construct: The array carries full-length recombinant human proteins expressed in S. cerevisiae; also called NY-ESO-1; Cancer/Testis Antigen 1A
Source text: as §1, §2, §3

[8] = target: T8, Melanoma-associated antigen 3 (MAGE-A3) (human, UniProt P43357 1-314)
T8 construct: The array carries full-length recombinant human proteins expressed in S. cerevisiae; also called Human MAGE-A3
Source text: as §1, §2, §3

Measured: binding result

T1 sequence (P83916 whole entry): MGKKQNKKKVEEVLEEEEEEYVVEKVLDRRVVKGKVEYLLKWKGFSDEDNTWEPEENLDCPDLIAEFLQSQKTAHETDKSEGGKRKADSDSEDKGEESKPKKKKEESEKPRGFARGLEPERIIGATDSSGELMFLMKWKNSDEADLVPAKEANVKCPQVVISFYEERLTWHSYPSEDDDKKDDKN
T7 sequence (P78358 whole entry): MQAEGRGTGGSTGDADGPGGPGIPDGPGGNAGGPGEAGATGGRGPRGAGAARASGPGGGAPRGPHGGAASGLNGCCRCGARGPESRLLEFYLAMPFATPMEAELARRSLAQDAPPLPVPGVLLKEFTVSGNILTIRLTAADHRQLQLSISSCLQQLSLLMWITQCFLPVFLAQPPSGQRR
T3 sequence (P40222 whole entry): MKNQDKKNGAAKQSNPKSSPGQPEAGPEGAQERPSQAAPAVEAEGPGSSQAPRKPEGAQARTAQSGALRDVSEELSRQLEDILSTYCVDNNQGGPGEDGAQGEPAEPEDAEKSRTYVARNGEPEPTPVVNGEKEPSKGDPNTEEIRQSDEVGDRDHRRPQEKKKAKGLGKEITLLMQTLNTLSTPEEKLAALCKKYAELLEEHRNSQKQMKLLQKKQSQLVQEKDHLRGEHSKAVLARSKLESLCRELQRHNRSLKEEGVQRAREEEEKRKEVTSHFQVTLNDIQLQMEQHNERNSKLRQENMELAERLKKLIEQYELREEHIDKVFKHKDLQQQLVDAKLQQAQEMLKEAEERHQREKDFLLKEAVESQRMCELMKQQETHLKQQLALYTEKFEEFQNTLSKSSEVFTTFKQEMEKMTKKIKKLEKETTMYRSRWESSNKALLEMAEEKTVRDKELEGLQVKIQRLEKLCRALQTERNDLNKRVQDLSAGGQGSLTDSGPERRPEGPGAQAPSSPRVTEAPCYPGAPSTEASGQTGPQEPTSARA
T4 sequence (P45973 whole entry): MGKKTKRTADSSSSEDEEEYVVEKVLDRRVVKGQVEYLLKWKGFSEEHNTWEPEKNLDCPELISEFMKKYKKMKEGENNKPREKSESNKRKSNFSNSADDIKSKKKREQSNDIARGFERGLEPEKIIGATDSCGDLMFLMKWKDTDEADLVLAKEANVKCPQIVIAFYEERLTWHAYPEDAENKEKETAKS
T8 sequence (P43357 whole entry): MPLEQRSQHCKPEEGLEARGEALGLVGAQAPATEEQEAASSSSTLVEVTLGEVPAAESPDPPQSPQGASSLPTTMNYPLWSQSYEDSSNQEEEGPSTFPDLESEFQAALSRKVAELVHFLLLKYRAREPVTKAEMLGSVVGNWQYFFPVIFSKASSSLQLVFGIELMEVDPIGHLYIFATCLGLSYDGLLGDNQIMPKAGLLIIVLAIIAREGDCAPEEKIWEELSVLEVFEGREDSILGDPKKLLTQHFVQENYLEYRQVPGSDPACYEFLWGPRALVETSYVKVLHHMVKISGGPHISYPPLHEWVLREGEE

B1: TMEL1006 (antibody, V domains shown)
VH: VVQLVESGGGLVQPGGSLRLSCAASGLTFRNYAMSWVRQAPGKGLEWVSAISGSGGRTHYADSVKGRFTISRDNSKNTLFLQMNSLRAEDTAVYYCAKEIGKYGTPTLFQHWGQGTLVTVSS
VL: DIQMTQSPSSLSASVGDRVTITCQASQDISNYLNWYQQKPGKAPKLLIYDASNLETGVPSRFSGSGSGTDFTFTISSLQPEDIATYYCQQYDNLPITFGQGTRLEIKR
notes: It was detected with an anti-human IgG Fc gamma secondary antibody
not listed: [7] | [8]
no binding (tested: 1 µg/ml): all other assays above

B2: TMEL1001 (antibody, V domains shown)
VH: EVQLVESGGGLVKPGGSLRLSCAASGFTFRSYSMNWVRQAPGKGLEWVSSISSSGNYIYYADSVKGRFTLSRDNAKNSLYLQMNSLRAEDTAVYYCARGGGTSWSHYWGQGTLVTVSS
VL: QFMLTQPHSVSESPGKTVTISCTRSSGSIASNYVQWYQQRPGSAPTTVIYEDNERPSGVPDRFSGSIDSSSNSASLTISGLKTEDEADYYCQSYDSNNRWVFGGGTKLTVLG
notes: as for B1
not listed: [5]
no binding (tested: 1 µg/ml): all other assays above

B3: TMEL1003 (antibody, V domains shown)
VH: AVQLVQSGAEVKKPGESLRISCKGSGYSFTSYWISWVRQMPGKGLEWMGRIDPSDSYTNYSPSFQGHVTISADKSISTAYLQWSSLKTSDTAMYYCARPLQTYSIASVGHWGQGTLVTVSS
VL: ASALTQPASVSGSPGQSITISCTGTSSDVGSYNLVSWYQQHPGKAPKLMIYEGSKRPSGVSNRFSGSKSGNTASLTISGLQAEDEADYYCCSYAGSSTFAVFGGGTKLTVLG
notes: the heavy entry continues into what looks like a non-IgG (IgM-like) CH1; It was detected with an anti-human IgG Fc gamma secondary antibody
no binding (tested: 1 µg/ml): [7] | [2] | [8] | [5] | [6]
